The values below come from patent US9181310B2 (priority 2003, dated 2015).

Entries after “also recorded” stand apart in the source; their conditions may differ. Where two headings read alike, the source gives them in different places. No end group written: not given here.

The conditions of data set [1]: incubated with intercellular plant fluid of potato; cited from earlier work.
For data set [2] the following is noted: incubated with intercellular plant fluid of rice; cited from earlier work.
For data set [3], the system named is E. coli ER2566. The data set is classed as cell-based.
Data set [4] deals with X. pelargonii strain CHSC. To be noted: in vivo.
Another data set has as its system R. solanacearum. It counts as in vivo. To be noted: sweet pepper leaves, transient expression from pIPG780, 48 hrs after challenge.
Another data set deals with X. pelargonii. To be noted: in vivo.
Data set [5] deals with X. pelargonii strain CHSC. Kind of data set: Pathogen challenge of transgenic geranium. The data set is classed as in vivo. Here is the method: Following inoculation, plants were held at 32° C. The circled region was cut out, and contained ca. 10^5 cfu/cm^2 live X. pelargonii cells (for details, refer Example 11 below). Photo taken four weeks after inoculation.
Following inoculation, plants were held at 32° C. […] Photo taken four weeks after inoculation.
Cell counts were taken daily for nine days by removing circular sections totaling 1 square centimeter (cm^2) using a cork borer from three inoculated leaves in the area most likely to contain pathogen cells (refer FIGS. 1 and 2). These leaf sections were macerated with a mortar and pestle and 1 milliliter of buffer, diluted using a 1:10 dilution series and 10 microliter drops placed on solid growth medium for counting. […] These plants were both immune to X. pelargonii infection, and rapidly brought the artificially inoculated pathogen population to extinction.
Inoculations were performed using liquid culture grown X. pelargonii cells, sprayed on the leaves at a concentration of 10^7 colony forming units per milliliter (cfu/ml) each. X. pelargonii was also inoculated using scissors dipped in 10^9 cfu/ml of cells to clip the leaves in several places on the same plants that were sprayed. Following X. pelargonii inoculation, plants were held at 32° C. to encourage pathogen growth and symptom development. Four weeks after inoculation, photographs were taken of both nontransgenic geranium variety “Avenida” inoculated with X. pelargonii (FIG. 1) and transgenic geranium of the same variety “Avenida” expressing BombBC inoculated with X. pelargonii (FIG. 2), and circular sections totaling 1 square centimeter (cm^2) were removed using a cork borer from three inoculated leaves in the area most likely to contain pathogen cells (refer FIGS. 1 and 2). Consistently, 10^5 cfu/ml of X. pelargonii was recovered from nontransgenic geranium variety “Avenida” plants at four weeks after inoculation (FIG. 3), and symptoms progressed systemically until the entire plant was dead, usually by 12 weeks after inoculation. […] These plants were immune to X. pelargonii infection.

Data set [6] deals with R. solanacearum strain Rsp673. The data set is classed as in vivo. The settings on record: transgenic geranium Avenida.
Data set [7] has as its system R. solanacearum strain Rsp446. The data set is classed as in vivo. To be noted: after 68 days.
Data set [8] concerns Ca. Liberibacter asiaticus. The data set is classed as in vivo. The settings on record: transgenic tobacco Xanthi, same on retest three weeks later.
For data set [9], the system named is E. coli ER2566. It counts as cell-based. To be noted: for bacterial stasis induced by expression: berberine chloride 250 ug/ml, 0.25 mM IPTG, 20 hrs of induction.
The test system of data set [10] is purified LPS extracted from X. campestris pv. pelargonii, X. citri, Rhizobium leguminosarum and Ralstonia solanacearum. It counts as biochemical. To be noted: 5 ug purified protein, room temperature, 2 hours.
In data set [11] the test system is LPS of X. campestris pv. pelargonii, X. citri, Rhizobium leguminosarum and Ralstonia solanacearum. The data set is classed as binding. To be noted: treated LPS lanes, Western blot.
The test system of data set [12] is rice (Oryza sativa japonica) cv. TP309. Kind of data set: Stable transformation of rice, effect on the plant. The settings on record: stable transformation with pIPG787.
Data set [13] has as its system Nicotiana tabaccum cv. Xanthi. Description: Stable transformation of tobacco, effect on the plant. The settings on record: stable transformation with pIPG786.
The test system of data set [14] is geranium (Pelargonium X hortorum) cv. Avenida. Description: Stable transformation of geranium, effect on the plant. The settings on record: stable transformation with pIPG787.
In data set [15] the test system is E. coli strains ADA410 P3rpoH::lacZ reporter (LPS or outer membrane damage). Kind of data set: P3rpoH::lacZ reporter, purified protein droplets on ADA410 cells on X-gal agar. The settings on record: ten microliter droplets of purified protein, 24 hr.
The mark [16] stands for this setting: Exp. 1, cutting (T0), inoculum 5 × 10^7 cfu/ml.
Where [17] appears, read: Exp. 2, cutting (T0), inoculum 1 × 10^8 cfu/ml.

On to “cecropin B: linear lytic peptide rapidly degraded by plant proteases (KWKVFKKIEKMGRNIRNGIVKAGPAIAVLGEAKAL; ends and bridges not checked; UniProt P01508 27-61, looked up)”, for which the results for the half-life entry in data set [1] and in data set [2] were “about three” and “about 25 hours”, respectively.

B1: BombOrfL: Phage 15 ORF L from Xanthomonas campestris pv. pelargonii, SEQ ID No. 15 (protein, listed as Xanthomonas campestris)
chain: MPTVDATPGSITANSYVTVAEANSYFDGSYGRPLWTSASEDEKASLVISASRYLDQMMAWIGAPTNPEQSMWWPCKNAVIGGMTLSQVSIPVKVKIAVFELAYFMLESGAALSFADQTIDSVKVGTIRVEFTKNSTDAGLPTFVEAMLSGFGSPVLYGSNAARSIDLVRA
Regarding B1, the “activity of expression clone (growth in presence of berberine chloride)” value (from here on “activity of expression clone”) in the data set on E. coli ER2566 [3] is “Active”.

B2: BombBC: Bacteriophage Outer Membrane Breaching protein of Xanthomonas phage P15 (Xp15) ORF BC, 17.9 kD, SEQ ID NO. 17 (protein, listed as Xanthomonas campestris)
chain: MSDQTDTTQTTPAEKAPPKEIIRGRMPIAVVALARFGSQSTTTTKAAADALGTTVGKIDDIRKNRNFAYVTADFKPTEAQKADGIEWLKRHPVGADALIEELQNLPVATAEESAAFEQVRASARGQNAKTAEGEVAQAGGGNRRKKKEKPAEAGEVQNPPAADGDSLLS
Take B2: in data set [4], the “HR symptoms elicited by X. pelargonii” value is listed as “abolished”. The “HR symptoms elicited by R. solanacearum” value with R. solanacearum is listed as “abolished”. Besides, the “drop in the number of colony forming units vs. control leaves” value with X. pelargonii was determined as 100 ×. For the same molecule, the “pathogenic symptoms caused by X. pelargonii” value in the data set on X. pelargonii was “greatly reduced”. For the same molecule, the “resistance status to X. pelargonii infection” value in data set [5] (transgenic geranium Avenida) is on record as “immune”. Moreover, in data set [5] (transgenic geranium Avenida leaf, four weeks after inoculation), the “X. pelargonii cells in cut out leaf region” value is listed as “no detected X. pelargonii cells”. Further, in data set [5] (transgenic geranium Avenida, 32° C.), the “symptoms of geranium blight” value is listed as “no evidence of symptoms”. Moreover, in [5] (transgenic geranium Avenida, after five days following inoculation), the “living X. pelargonii cells recovered” value is “no living X. pelargonii cells were recovered”. For the same molecule, in data set [6] (syringe infiltration and soil inoculation, 32° C.), the “symptom development of bacterial wilt” value was “failed to progress past the leaf area where the pathogen was directly infiltrated; also recorded: No symptom development, other than that which initially developed in, and stayed restricted to, the region of inoculation”. Besides, the “detected R. solanacearum cells” value in data set [6] (twelve weeks after inoculation) was “no detected R. solanacearum cells”. Besides, the “number of survivors/total tested” value in [7] (setting [16]) is 10/15; in data set [7] (setting [17]) it was 9/20; in data set [7] (Exp. 3, seeded (T1), inoculum 2 × 10^8 cfu/ml) it was 0/21. Besides, the per cent survivors entry in data set [7] (setting [16]) is “(63%)”; in data set [7] (setting [17]), “(45%)”. Also, the “plants symptomatic for greening” value in data set [8] (4 weeks connected to dodder) is reported as “neither of the two”. Further, in [8] (nested PCR), the “plants PCR positive for greening” value is on record as “neither were PCR positive”. Moreover, the “bacterial stasis induced by expression” value with E. coli ER2566 [9] is “clearly induced”. Also, in the data set with E. coli ER2566 [3], the “activity of expression clone” value is listed as “Active”. The “degradation of LPS” value in data set [10] is “enzymatically degrades LPS”. The “attachment to LPS” value in [11] was “attached to the degraded LPS of all species tested”. The “detrimental effect on rice plants” value in data set [12] is on record as “not detrimental”. Also, the “detrimental effect on tobacco plants” value in data set [13] is recorded as “not detrimental”. In [14], the “detrimental effect on geranium plants” value is listed as “not detrimental”. Further, the “blue color around ADA410 cells (P3rpoH::lacZ activation)” value in [15] was “Blue color slowly developed and intensified”.

B3: BombOrf9: Phage 13 ORF 9 from Xanthomonas campestris pv. pelargonii, SEQ ID No. 13 (protein, listed as Xanthomonas campestris)
chain: MVVVAQGTVPAKVHPQLTNLTALFADAVGLFLDVSDKVADLLVRFADVEAQGAELLLDLAHLAVPASVVHPTHAGQDQTVPAASDILHGVLEGQPVALVVNQRALRAAQLNPLLALRLDVEAVADQDAEGGAVAHAHAGDQLAVEQKLQILLERFGHDALAGHRRVEPIAYLVDVRSWEAGALDADQPRDDTADGDDAHAQRFVRHVERDGFGSGVLHPSQVRQRLAVLVDDFVEGSRVALDDRANHGEVGVDRVHQ
As to B3, in the data set on E. coli ER2566 [3], the “activity of expression clone” value is “Active” and the “relative strength of activity in E. coli” value is given as “Weak activity”.

B4: BombORF35PA: Phage PhiKMV ORF 35 from Pseudomonas aeruginosa, SEQ ID No. 9 (protein, listed as Pseudomonas aeruginosa)
chain: MAFWLPLLAAGGMSALQQGLANKEERNKIKAENKARLKTDLDNLGAAARDIANLGVMAASYRKQAVASQVEAKRQGMLAGGSAEAQAGAFGVKGASVDAVALDIEREVGEALIQIDDNLDNQMWNLAEQAHSIQAQAKAGLLGQKSTTAGQRSPLVAGLMSAGSLYASQYFKFGATPKGGN
Turning to B4, in the data set with E. coli ER2566 [3], the “activity of expression clone” value is given as “Active”.

B5: D1: BombBC deletion, aa26-169 of BC, SEQ ID 6 (protein)
chain: MPIAVVALARFGSQSTTTTKAAADALGTTVGKIDDIRKNRNFAYVTADFKPTEAQKADGIEWLKRHPVGADALIEELQNLPVATAEESAAFEQVRASARGQNAKTAEGEVAQAGGGNRRKKKEKPAEAGEVQNPPAADGDSLLS
modifications: mutant D1 predicted amino acid sequence
As to B5, the “bacterial stasis induced by expression” value in the data set with E. coli ER2566 [9] was “clearly induced”. Besides, the “activity of expression clone” value with E. coli ER2566 [9] (berberine chloride (5 micrograms/ml), 20 h after induction) is “Active”.
